The series has as its system CCCCCCCCCCCCCCCC(=O)SCCNC(=O)CCNC(=O)[C@H](O)C(C)(C)COP(=O)(O)OP(=O)(O)OC[C@H]1O[C@@H](n2cnc3c(N)ncnc32)[C@H](O)[C@@H]1OP(=O)(O)O. In words: purified protein.

What is called Km is the concentration of substrate that gives half-maximal velocity. On to zDHHC9 (Homo sapiens), for which the Km was determined as 45 ± 4 µM.

The values above are taken from publication PMC6445550.
